The text below walks through data of paper PMC3115793 (The Journal of Cell Biology, 2011).

This assay concerns the target T1, recombinant purified full-length AurA (His-AurA) (UniProt O14965 1-403).
T1 sequence (looked up): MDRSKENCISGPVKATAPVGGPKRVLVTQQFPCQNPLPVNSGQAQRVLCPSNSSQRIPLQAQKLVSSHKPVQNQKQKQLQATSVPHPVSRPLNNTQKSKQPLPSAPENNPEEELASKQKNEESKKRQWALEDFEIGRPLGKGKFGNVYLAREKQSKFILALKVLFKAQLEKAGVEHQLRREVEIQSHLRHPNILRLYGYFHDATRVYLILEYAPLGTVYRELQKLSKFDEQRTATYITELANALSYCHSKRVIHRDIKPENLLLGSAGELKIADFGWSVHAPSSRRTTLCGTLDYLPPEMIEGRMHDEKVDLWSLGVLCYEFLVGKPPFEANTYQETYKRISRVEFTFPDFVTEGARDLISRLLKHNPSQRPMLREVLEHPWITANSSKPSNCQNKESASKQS
As to the kind of experiment: pull-down.

B1: GST fused to aa 779-968 of the PC2 C terminus (domain or fragment, human, UniProt Q13563 779-968, looked up)
chain: RDDLEKEREDLDLDHSSLPRPMSSRSFPRSLDDSEEDDDEDSGHSSRRRGSISSGVSYEEFQVLVRRVDRMEHSIGSIVSKIDAVIVKLEIMERAKLKRREVLGRLLDGVAEDERLGRDSEIHREQMERLVREELERWESDDAASQISHGLGTPVGLNGQPRPRSSRPSSSQSTEGMEGAGGNGSSNVHV
For the molecule B1, the binding result is reported as “binds”.
